T1: Prp39 (S. cerevisiae, UniProt P39682 1-629)
T1 sequence: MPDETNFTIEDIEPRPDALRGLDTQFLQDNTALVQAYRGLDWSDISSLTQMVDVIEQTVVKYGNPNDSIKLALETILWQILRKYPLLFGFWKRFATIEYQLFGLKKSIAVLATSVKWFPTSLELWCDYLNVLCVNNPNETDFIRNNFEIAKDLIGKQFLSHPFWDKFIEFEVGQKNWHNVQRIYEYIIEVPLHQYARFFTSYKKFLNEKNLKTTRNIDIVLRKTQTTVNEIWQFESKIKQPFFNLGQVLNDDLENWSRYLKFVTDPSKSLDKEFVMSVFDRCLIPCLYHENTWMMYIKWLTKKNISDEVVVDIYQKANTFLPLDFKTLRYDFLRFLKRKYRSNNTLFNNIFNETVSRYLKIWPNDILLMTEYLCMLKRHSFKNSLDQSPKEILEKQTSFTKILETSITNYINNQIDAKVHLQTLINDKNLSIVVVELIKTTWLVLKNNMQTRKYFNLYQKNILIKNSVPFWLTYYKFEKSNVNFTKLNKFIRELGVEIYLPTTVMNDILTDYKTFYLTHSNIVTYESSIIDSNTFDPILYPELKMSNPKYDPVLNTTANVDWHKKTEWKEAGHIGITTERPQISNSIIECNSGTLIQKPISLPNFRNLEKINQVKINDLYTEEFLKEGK

T2: Snu71 (S. cerevisiae, UniProt P53207 1-620)
T2 sequence (looked up): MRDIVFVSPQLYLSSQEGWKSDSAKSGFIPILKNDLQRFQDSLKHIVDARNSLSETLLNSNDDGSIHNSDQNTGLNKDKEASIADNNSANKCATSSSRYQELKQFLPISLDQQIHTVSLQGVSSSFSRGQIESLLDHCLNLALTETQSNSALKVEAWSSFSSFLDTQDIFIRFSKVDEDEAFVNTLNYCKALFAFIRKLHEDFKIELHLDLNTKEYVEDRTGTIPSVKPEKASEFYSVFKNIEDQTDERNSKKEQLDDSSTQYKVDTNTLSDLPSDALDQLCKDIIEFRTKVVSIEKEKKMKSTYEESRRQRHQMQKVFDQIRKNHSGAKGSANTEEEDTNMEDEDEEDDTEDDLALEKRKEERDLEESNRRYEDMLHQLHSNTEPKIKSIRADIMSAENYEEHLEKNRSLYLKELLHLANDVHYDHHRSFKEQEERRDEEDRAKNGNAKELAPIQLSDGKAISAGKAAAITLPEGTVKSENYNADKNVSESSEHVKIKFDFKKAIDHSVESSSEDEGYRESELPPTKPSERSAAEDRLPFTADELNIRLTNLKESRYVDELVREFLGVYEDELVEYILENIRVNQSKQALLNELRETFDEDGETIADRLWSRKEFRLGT

B1: Yhc1 (natural protein, S. cerevisiae, UniProt Q05900 1-231, looked up)
chain: MTRYYCEYCHSYLTHDTLSVRKSHLVGKNHLRITADYYRNKARDIINKHNHKRRHIGKRGRKERENSSQNETLKVTCLSNKEKRHIMHVKKMNQKELAQTSIDTLKLLYDGSPGYSKVFVDANRFDIGDLVKASKLPQRANEKSAHHSFKQTSRSRDETCESNPFPRLNNPKKLEPPKILSQWSNTIPKTSIFYSVDILQTTIKESKKRMHSDGIRKPSSANGYKRRRYGN
B2: Nam8 (natural protein, S. cerevisiae, UniProt Q00539 1-523, looked up)
chain: MSYKQTTYYPSRGNLVRNDSSPYTNTISSETNNSSTSVLSLQGASNVSLGTTGNQLYMGDLDPTWDKNTVRQIWASLGEANINVRMMWNNTLNNGSRSSMGPKNNQGYCFVDFPSSTHAANALLKNGMLIPNFPNKKLKLNWATSSYSNSNNSLNNVKSGNNCSIFVGDLAPNVTESQLFELFINRYASTSHAKIVHDQVTGMSKGYGFVKFTNSDEQQLALSEMQGVFLNGRAIKVGPTSGQQQHVSGNNDYNRSSSSLNNENVDSRFLSKGQSFLSNGNNNMGFKRNHMSQFIYPVQQQPSLNHFTDPNNTTVFIGGLSSLVTEDELRAYFQPFGTIVYVKIPVGKCCGFVQYVDRLSAEAAIAGMQGFPIANSRVRLSWGRSAKQTALLQQAMLSNSLQVQQQQPGLQQPNYGYIPSSTCEAPVLPDNNVSSTMLPGCQILNYSNPYANANGLGSNNFSFYSNNNATNTQATSLLADTSSMDLSGTGGQQVIMQGSEAVVNSTNAMLNRLEQGSNGFMFA
B3: Lea1 (natural protein, S. cerevisiae, UniProt Q08963 1-238, looked up)
chain: MKFTPSIVIDAPQYYVDHFNGKYNVDKCVILRDLQLETDSESMPSSLKHLTKPTHILDLTNNDLIMIPDLSRRDDIHTLLLGRNNIVEVDGRLLPMNVQNLTLSNNSIRRFEDLQRLRRAPRTLKNLTLIGNQVCHLANYREHVLRLVPHLETLDFQNVTAEERKSAMSFPRQADGDTLGPVNTAIRDNGSRDKTMEIMNLVVSKMTVERRNELKKQLAEATSLEEIARLEKLLSGGV
B4: Prp42 (natural protein)
chain: MDKYTALIHDENFSTLTLNVSRYPKSLAYWEKLLNYIVKASAPICKSTEPQLLKLIRCTYSSMLNEFPYLENYYIDFALLEYKLGNVSMSHKIFQRGLQAFNQRSLLLWTSYLKFCNNVISHQKQLFKKYETAEEYVGLHFFSGEFWDLYLEQISSRCTSSKKYWNVLRKILEIPLHSFSKFYALWLQRIDDIMDLKQLSQLTSKDELLKKLKIDINYSGRKGPYLQDAKKKLKKITKEMYMVVQYQVLEIYSIFESKIYINYYTSPETLVSSDEIETWIKYLDYTITLQTDSLTHLNFQRALLPLAHYDLVWIKYSKWLINSKNDLLGAKNVLLMGLKFSLKKTEIIKLLYSVICKLNEYVLLRNLLEKIESSYSDNVENVDDFEIFWDYLQFKTFCQNSLYSSRYSDSQSNGLLNKELFDKVWKRLSCKEKKSGQEILLNNLVQFYSKDTVEFVEKNIFQKIIEFGWEYYLQNGMFWNCYCRLIYFDTSRSYLDKRQYIVRKIWPQIDKKFAQSVLPSLTEFCESYFPEEMDTLEEMFTEEP
B5: Snu56 (natural protein, S. cerevisiae, UniProt Q03782 1-492, looked up)
chain: MRPRRRGLAYHHTKPKGQLSQGHYPTTSNDGQRRKVGNSEAFQSFDIWKNLDRIRSTKKNAGQFIKGSLLILPMRTEDKQQFDECMDELHKYISKDILRCYPQKEQKDEGMLFYIVLKDFNILDSCFVLSVLLAFQKRLWMAPSEKSYFRVPKNINLTGSFYLPKNIETGRGHIITSYRREQPSSSIVEVGFNVVPDFQQFQVKACHVSKFMNELSNFFSQVEFGKCEANVINYFKREYNRTYSQISLALYELPLIGDGLFDIKSYISKTRPIIETSKAQMIKHISEMKAYNEISGLQGDQFPRQQRPLSNSPSSNSISSSQTIEAGATSYQTQPQRHAVNKPSNVLNSSNRHSGPKTFEDGRYSEGNKPGFMTQDEIKQHCIGTIKASMDAVKKKSSYQILKTYVRCPRQNYIDIVYQNLNDLRSKTNCNIVVLNLNNLHESQMWLESLNTTNYTIFAQAPHPSTIRVISIGGVGEYIVKALELILNILEH

Test in all cases: cryo-EM structure
The target of one assay is T1, Prp39.
The assay “Nam8” addresses B2.
The assay “Prp42” deals with B4.
The target in a further assay is T2, Snu71.

Take B1: the binding result with Prp39, with Nam8 and in the assay with Prp42 was “binds” throughout.

B2: the binding result in the assay with Prp39 and with Prp42 was “binds” each time.

Consider B3, for which the binding result with Prp39 is “binds”.

For the molecule B4, the binding result with Prp39 and with Snu71 was “binds” throughout.

Take B5: the binding result in the assay with Snu71 is recorded as “binds”.

For the origin of these results see PMC6141012 (Nature, 2018).
